Experiment [1] addresses modified kemptide LRRASLP of C4kY2.1, phosphorylated by PKA at serine 475. In words: cell-based or functional assay.
Experiment [2] addresses PKC substrate sequence … of CKAR, phosphorylated by PKC at the phosphoacceptor threonine. The experiment in a line: cell-based or functional assay.

On to “14-3-3τ (1-232), the phosphoaminoacid binding domain of the chimeric PKA reporter protein C4kY2.1”, for which, in experiment [1], the FRET efficiency of phosphorylated C4kY2.1, calculated after trypsin treatment (nonphosphorylated: 30%) is 20%; the change in the emission ratio 535 nm/480 nm in cells pretreated with 10 µM H-89, then 1 mM dbcAMP was found to be 46%; the emission ratio of 526 nm and 476 nm of the purified PKA-phosphorylated chimera before dephosphorylation by PP1 (1.14 after) turned out to be 1.39; the increase in the 535 nm/480 nm ratio in COS-7 cells treated with FsK and with dbcAMP worked out at 5%. Also, the ratio of the emission at 526 nm and 476 nm of purified C4kY2.1 after phosphorylation by PKA catalytic subunit (1.09 before) in experiment [1] came to 1.42.
Turning to “FHA2 phosphothreonine binding domain from the yeast checkpoint protein rad53p, as the binding domain of CKAR (from UniProt P22216 601-681)”, in experiment [2], the absolute amount of FRET of purified CKAR after phosphorylation by PKC βII (38% before), estimated from emission spectra was 34%.
